From patent US20250218531A1 (ABSCI, published 2025)
Changes are numbered by the printed parent chain. Several values for one entry are separate records, joined by “and”; a condition that tells them apart may be missing. Equal entries are not always repeated.

B1: Trastuzumab HCDR3 variant ARYGYGYYYYFDY (Fab, V domains shown)
VH: EVQLVESGGGLVQPGGSLRLSCAASGFNIKDTYIHWVRQAPGKGLEWVARIYPTNGYTRYADSVKGRFTISADTSKNTAYLQMNSLRAEDTAVYYCARYGYGYYYYFDYWGQGTLVTVSS
VL: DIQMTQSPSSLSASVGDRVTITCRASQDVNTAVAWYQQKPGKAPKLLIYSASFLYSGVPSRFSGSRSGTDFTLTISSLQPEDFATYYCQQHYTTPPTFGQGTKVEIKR
B2: Trastuzumab HCDR3 variant AQYGRGGYWYFDY (Fab, V domains shown)
VH: B1 VH with R98Q, Y101R, Y103G, Y105W
VL: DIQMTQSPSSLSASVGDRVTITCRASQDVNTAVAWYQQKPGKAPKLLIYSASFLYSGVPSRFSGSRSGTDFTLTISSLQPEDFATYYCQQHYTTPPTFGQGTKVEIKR
B3: Trastuzumab HCDR3 variant ARPSYDVGGDMLF (Fab, V domains shown)
VH: B1 VH with Y99P, G100S, G102D, Y103V, Y104G, Y105G, Y106D, F107M, D108L, Y109F
VL: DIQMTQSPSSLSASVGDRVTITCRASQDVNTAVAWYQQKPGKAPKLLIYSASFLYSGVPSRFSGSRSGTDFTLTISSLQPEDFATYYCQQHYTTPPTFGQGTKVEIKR
B4: Trastuzumab HCDR3 variant ARNSGTGIWAFAY (Fab, V domains shown)
VH: B1 VH with Y99N, G100S, Y101G, G102T, Y103G, Y104I, Y105W, Y106A, D108A
VL: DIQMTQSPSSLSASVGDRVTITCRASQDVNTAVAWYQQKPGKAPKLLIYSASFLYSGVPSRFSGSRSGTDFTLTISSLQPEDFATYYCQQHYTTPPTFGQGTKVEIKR
B5: Trastuzumab HCDR3 variant AQNWDRGSYFYTY (Fab, V domains shown)
VH: B1 VH with R98Q, Y99N, G100W, Y101D, G102R, Y103G, Y104S, Y106F, F107Y, D108T
VL: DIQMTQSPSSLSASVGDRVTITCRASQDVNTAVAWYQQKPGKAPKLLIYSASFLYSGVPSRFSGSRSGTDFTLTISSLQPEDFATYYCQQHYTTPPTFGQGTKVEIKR
B6: Trastuzumab HCDR3 variant ARDVYVGSPVFDY (Fab, V domains shown)
VH: B1 VH with Y99D, G100V, G102V, Y103G, Y104S, Y105P, Y106V
VL: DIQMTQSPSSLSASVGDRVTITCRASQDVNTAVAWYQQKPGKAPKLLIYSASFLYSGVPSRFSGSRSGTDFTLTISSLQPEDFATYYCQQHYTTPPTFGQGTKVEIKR
B7: Trastuzumab HCDR3 variant ARGHYSLGYSFDF (Fab, V domains shown)
VH: B1 VH with Y99G, G100H, G102S, Y103L, Y104G, Y106S, Y109F
VL: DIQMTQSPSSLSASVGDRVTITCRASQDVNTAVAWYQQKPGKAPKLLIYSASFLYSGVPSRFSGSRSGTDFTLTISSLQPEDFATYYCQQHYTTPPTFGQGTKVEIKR
B8: Trastuzumab HCDR3 variant AIWSMYDVGYYPF (Fab, V domains shown)
VH: EVQLVESGGGLVQPGGSLRLSCAASGFNIKDTYIHWVRQAPGKGLEWVARIYPTNGYTRYADSVKGRFTISADTSKNTAYLQMNSLRAEDTAVYYCAIWSMYDVGYYPFWGQGTLVTVSS
VL: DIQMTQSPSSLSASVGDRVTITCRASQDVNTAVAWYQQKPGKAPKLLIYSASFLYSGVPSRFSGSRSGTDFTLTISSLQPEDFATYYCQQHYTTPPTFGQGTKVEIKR
B9: Trastuzumab HCDR3 variant AKFERGYYSFDFG (Fab, V domains shown)
VH: B1 VH with R98K, Y99F, G100E, Y101R, Y105S, Y106F, F107D, D108F, Y109G
VL: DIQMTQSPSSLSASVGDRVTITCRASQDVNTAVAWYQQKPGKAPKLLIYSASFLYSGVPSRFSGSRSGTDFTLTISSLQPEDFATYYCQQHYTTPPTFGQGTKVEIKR
B10: Trastuzumab HCDR3 variant AKFHWGEDWLSDN (Fab, V domains shown)
VH: B1 VH with R98K, Y99F, G100H, Y101W, Y103E, Y104D, Y105W, Y106L, F107S, Y109N
VL: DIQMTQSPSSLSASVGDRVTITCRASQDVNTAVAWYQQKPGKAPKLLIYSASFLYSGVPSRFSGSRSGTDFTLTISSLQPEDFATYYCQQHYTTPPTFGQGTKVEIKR
B11: Trastuzumab HCDR3 variant ARAGGTSISLGHG (Fab, V domains shown)
VH: B1 VH with Y99A, Y101G, G102T, Y103S, Y104I, Y105S, Y106L, F107G, D108H, Y109G
VL: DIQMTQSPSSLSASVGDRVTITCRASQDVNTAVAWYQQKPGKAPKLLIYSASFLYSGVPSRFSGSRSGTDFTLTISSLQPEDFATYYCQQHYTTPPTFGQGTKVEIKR
B12: Trastuzumab HCDR3 variant ANVGSSLGIAALD (Fab, V domains shown)
VH: EVQLVESGGGLVQPGGSLRLSCAASGFNIKDTYIHWVRQAPGKGLEWVARIYPTNGYTRYADSVKGRFTISADTSKNTAYLQMNSLRAEDTAVYYCANVGSSLGIAALDWGQGTLVTVSS
VL: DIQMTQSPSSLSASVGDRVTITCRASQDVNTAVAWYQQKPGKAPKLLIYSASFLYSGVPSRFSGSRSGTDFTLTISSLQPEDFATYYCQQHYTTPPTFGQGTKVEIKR
B13: Trastuzumab HCDR3 variant AGSSASGWYHYTT (Fab, V domains shown)
VH: B8 VH with I98G, W99S, M101A, Y102S, D103G, V104W, G105Y, Y106H, P108T, F109T
VL: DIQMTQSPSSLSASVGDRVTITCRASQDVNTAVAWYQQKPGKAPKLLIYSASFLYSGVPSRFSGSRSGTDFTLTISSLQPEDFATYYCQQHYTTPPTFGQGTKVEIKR
B14: Trastuzumab HCDR3 variant ARHYDYGRYYMDV (Fab, V domains shown)
VH: B1 VH with Y99H, G100Y, Y101D, G102Y, Y103G, Y104R, F107M, Y109V
VL: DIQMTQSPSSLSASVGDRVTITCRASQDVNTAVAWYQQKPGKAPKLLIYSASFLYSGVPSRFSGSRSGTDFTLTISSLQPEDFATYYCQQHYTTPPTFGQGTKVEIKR
B15: Trastuzumab HCDR3 variant ARDSPYYGSLYLY (Fab, V domains shown)
VH: B8 VH with I98R, W99D, M101P, D103Y, V104G, G105S, Y106L, P108L, F109Y
VL: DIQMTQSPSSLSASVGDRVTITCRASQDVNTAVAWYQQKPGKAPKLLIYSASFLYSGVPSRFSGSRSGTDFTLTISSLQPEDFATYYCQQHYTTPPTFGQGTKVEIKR
B16: Trastuzumab HCDR3 variant ARDGYPQYGGYGY (Fab, V domains shown)
VH: B1 VH with Y99D, G102P, Y103Q, Y105G, Y106G, F107Y, D108G
VL: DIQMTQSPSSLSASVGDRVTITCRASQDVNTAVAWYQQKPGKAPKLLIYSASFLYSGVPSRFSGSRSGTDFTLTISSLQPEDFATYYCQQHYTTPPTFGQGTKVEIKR
B17: Trastuzumab HCDR3 variant AGSVAEGWYHYRD (Fab, V domains shown)
VH: EVQLVESGGGLVQPGGSLRLSCAASGFNIKDTYIHWVRQAPGKGLEWVARIYPTNGYTRYADSVKGRFTISADTSKNTAYLQMNSLRAEDTAVYYCAGSVAEGWYHYRDWGQGTLVTVSS
VL: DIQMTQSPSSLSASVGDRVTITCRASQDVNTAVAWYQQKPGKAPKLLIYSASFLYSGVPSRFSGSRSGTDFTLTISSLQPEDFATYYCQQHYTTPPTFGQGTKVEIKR
B18: Trastuzumab HCDR3 variant ARNYYYGAYYFDY (Fab, V domains shown)
VH: B1 VH with Y99N, G100Y, G102Y, Y103G, Y104A
VL: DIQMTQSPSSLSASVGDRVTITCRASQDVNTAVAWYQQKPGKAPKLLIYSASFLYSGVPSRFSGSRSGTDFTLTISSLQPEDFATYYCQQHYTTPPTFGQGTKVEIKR
B19: Trastuzumab HCDR3 variant AKYTRGFSYGFGY (Fab, V domains shown)
VH: B1 VH with R98K, G100T, Y101R, Y103F, Y104S, Y106G, D108G
VL: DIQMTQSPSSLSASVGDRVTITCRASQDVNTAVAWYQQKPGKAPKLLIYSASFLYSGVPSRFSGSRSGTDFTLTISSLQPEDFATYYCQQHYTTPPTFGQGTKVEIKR
B20: Trastuzumab HCDR3 variant ARFGPAYFYGFYY (Fab, V domains shown)
VH: B1 VH with Y99F, Y101P, G102A, Y104F, Y106G, D108Y
VL: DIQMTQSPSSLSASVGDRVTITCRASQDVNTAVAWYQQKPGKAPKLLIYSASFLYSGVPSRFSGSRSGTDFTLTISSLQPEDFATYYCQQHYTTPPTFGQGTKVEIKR
B21: Trastuzumab HCDR3 variant AGYEGYGLYPFAY (Fab, V domains shown)
VH: B1 VH with R98G, G100E, Y101G, G102Y, Y103G, Y104L, Y106P, D108A
VL: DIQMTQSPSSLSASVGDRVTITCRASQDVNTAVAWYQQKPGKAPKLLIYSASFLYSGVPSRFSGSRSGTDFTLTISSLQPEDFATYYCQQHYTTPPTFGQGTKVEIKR
B22: Trastuzumab HCDR3 variant ARDGYPFYSGMDY (Fab, V domains shown)
VH: B1 VH with Y99D, G102P, Y103F, Y105S, Y106G, F107M
VL: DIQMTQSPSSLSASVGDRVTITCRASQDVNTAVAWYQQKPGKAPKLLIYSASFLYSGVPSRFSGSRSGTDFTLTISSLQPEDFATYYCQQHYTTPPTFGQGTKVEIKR
B23: Trastuzumab HCDR3 variant ARSGYPGYGSFAY (Fab, V domains shown)
VH: B1 VH with Y99S, G102P, Y103G, Y105G, Y106S, D108A
VL: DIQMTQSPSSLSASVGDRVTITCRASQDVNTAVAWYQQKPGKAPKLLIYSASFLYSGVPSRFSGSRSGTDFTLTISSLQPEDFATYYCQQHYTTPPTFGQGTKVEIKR
B24: Trastuzumab HCDR3 variant ARFGGAGGYYFDY (Fab, V domains shown)
VH: B1 VH with Y99F, Y101G, G102A, Y103G, Y104G
VL: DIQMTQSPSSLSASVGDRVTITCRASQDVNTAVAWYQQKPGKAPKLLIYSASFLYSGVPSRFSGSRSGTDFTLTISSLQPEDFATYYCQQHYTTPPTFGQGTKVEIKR
B25: Trastuzumab HCDR3 variant ARFSGYGAYDYAY (Fab, V domains shown)
VH: B17 VH with G98R, S99F, V100S, A101G, E102Y, W104A, H106D, R108A, D109Y
VL: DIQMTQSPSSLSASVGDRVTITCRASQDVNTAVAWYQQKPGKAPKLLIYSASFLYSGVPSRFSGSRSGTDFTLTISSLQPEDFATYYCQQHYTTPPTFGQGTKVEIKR
B26: Trastuzumab HCDR3 variant APWGTYRYGYFDH (Fab, V domains shown)
VH: B1 VH with R98P, Y99W, Y101T, G102Y, Y103R, Y105G, Y109H
VL: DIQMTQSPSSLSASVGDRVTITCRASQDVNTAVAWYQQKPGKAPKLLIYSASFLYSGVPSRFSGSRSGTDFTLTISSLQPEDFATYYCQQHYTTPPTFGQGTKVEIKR
B27: Trastuzumab HCDR3 variant ARGGYGYYTWFDY (Fab, V domains shown)
VH: B1 VH with Y99G, Y105T, Y106W
VL: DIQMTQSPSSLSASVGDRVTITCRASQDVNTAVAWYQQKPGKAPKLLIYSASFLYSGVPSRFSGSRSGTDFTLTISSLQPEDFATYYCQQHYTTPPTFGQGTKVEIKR
B28: Trastuzumab HCDR3 variant ARDGGMYRYGLYG (Fab, V domains shown)
VH: B1 VH with Y99D, Y101G, G102M, Y104R, Y106G, F107L, D108Y, Y109G
VL: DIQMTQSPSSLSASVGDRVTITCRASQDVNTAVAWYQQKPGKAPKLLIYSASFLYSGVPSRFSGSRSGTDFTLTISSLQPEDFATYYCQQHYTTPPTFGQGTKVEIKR
B29: Trastuzumab HCDR3 variant ARGYYQDSQSWGY (Fab, V domains shown)
VH: B1 VH with Y99G, G100Y, G102Q, Y103D, Y104S, Y105Q, Y106S, F107W, D108G
VL: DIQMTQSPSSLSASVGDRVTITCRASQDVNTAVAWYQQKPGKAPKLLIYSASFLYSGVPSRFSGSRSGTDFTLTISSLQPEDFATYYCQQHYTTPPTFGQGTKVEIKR
B30: Trastuzumab HCDR3 variant APWWSGWYYFFDT (Fab, V domains shown)
VH: B1 VH with R98P, Y99W, G100W, Y101S, Y103W, Y106F, Y109T
VL: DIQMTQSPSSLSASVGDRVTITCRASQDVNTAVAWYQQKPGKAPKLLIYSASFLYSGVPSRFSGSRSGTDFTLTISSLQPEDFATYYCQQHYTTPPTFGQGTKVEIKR
B31: Trastuzumab HCDR3 variant ARYYYSGYYMSV (Fab, V domains shown)
VH: EVQLVESGGGLVQPGGSLRLSCAASGFNIKDTYIHWVRQAPGKGLEWVARIYPTNGYTRYADSVKGRFTISADTSKNTAYLQMNSLRAEDTAVYYCARYYYSGYYMSVWGQGTLVTVSS
VL: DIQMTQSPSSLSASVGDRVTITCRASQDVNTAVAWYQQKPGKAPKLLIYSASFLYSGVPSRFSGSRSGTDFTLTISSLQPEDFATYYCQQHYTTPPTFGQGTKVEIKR
B32: Trastuzumab HCDR3 variant TRTRSGAYFFDY (Fab, V domains shown)
VH: B31 VH with A97T, Y99T, Y100R, Y101S, S102G, G103A, Y105F, M106F, S107D, V108Y
VL: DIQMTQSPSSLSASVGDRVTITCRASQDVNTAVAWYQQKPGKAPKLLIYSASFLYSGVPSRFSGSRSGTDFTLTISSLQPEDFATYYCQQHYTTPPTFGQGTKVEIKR
B33: Trastuzumab HCDR3 variant VKHGIDYYWYGD (Fab, V domains shown)
VH: EVQLVESGGGLVQPGGSLRLSCAASGFNIKDTYIHWVRQAPGKGLEWVARIYPTNGYTRYADSVKGRFTISADTSKNTAYLQMNSLRAEDTAVYYCVKHGIDYYWYGDWGQGTLVTVSS
VL: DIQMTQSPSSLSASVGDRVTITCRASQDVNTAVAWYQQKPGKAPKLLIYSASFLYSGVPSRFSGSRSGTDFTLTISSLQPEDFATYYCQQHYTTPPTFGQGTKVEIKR
B34: Trastuzumab HCDR3 variant SRWYGDYFAMDY (Fab, V domains shown)
VH: B31 VH with A97S, Y99W, Y101G, S102D, G103Y, Y104F, Y105A, S107D, V108Y
VL: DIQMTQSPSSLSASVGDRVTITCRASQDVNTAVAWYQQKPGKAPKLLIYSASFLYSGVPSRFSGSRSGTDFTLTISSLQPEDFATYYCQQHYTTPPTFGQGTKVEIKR
B35: Trastuzumab HCDR3 variant ASGDLTAGSSQT (Fab, V domains shown)
VH: EVQLVESGGGLVQPGGSLRLSCAASGFNIKDTYIHWVRQAPGKGLEWVARIYPTNGYTRYADSVKGRFTISADTSKNTAYLQMNSLRAEDTAVYYCASGDLTAGSSQTWGQGTLVTVSS
VL: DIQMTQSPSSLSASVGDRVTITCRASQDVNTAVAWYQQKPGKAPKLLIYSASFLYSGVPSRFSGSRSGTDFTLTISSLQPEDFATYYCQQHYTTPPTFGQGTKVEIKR
B36: Trastuzumab HCDR3 variant TRNGPLYWHWDL (Fab, V domains shown)
VH: B33 VH with V97T, K98R, H99N, I101P, D102L, Y104W, W105H, Y106W, G107D, D108L
VL: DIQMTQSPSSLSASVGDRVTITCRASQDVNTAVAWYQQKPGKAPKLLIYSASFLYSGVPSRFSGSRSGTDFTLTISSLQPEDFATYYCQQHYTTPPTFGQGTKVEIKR
B37: Trastuzumab HCDR3 variant VRYYRGYYYFDY (Fab, V domains shown)
VH: B31 VH with A97V, Y101R, S102G, G103Y, M106F, S107D, V108Y
VL: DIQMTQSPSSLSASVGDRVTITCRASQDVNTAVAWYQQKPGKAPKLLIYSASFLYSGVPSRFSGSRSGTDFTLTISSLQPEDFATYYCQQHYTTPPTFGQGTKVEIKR
B38: Trastuzumab HCDR3 variant ASYMGIVGYYPG (Fab, V domains shown)
VH: B31 VH with R98S, Y100M, Y101G, S102I, G103V, Y104G, M106Y, S107P, V108G
VL: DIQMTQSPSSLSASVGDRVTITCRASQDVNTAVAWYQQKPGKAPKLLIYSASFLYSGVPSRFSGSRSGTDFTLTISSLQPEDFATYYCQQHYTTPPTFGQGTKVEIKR
B39: Trastuzumab HCDR3 variant TRYYDGYYAMDY (Fab, V domains shown)
VH: B31 VH with A97T, Y101D, S102G, G103Y, Y105A, S107D, V108Y
VL: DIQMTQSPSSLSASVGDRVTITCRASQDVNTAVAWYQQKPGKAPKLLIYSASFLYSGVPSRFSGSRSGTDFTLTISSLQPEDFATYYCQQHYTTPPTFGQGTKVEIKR
B40: Trastuzumab HCDR3 variant ATGPYTVYSYPY (Fab, V domains shown)
VH: B35 VH with S98T, D100P, L101Y, A103V, G104Y, S106Y, Q107P, T108Y
VL: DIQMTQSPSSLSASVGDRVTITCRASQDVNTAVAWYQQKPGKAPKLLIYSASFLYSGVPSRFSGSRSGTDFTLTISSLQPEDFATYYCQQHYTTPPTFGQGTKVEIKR
B41: Trastuzumab HCDR3 variant ASYYDYYYAFGT (Fab, V domains shown)
VH: B31 VH with R98S, Y101D, S102Y, G103Y, Y105A, M106F, S107G, V108T
VL: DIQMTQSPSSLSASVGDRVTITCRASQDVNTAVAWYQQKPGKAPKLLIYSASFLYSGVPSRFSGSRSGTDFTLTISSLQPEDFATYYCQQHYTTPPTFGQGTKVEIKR
B42: Trastuzumab HCDR3 variant ATNAFGLWSYGF (Fab, V domains shown)
VH: B35 VH with S98T, G99N, D100A, L101F, T102G, A103L, G104W, S106Y, Q107G, T108F
VL: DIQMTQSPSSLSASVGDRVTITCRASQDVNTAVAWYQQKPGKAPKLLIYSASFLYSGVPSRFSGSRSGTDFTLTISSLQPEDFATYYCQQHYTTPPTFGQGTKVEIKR
B43: Trastuzumab HCDR3 variant TLNGPLYWMWTL (Fab, V domains shown)
VH: B33 VH with V97T, K98L, H99N, I101P, D102L, Y104W, W105M, Y106W, G107T, D108L
VL: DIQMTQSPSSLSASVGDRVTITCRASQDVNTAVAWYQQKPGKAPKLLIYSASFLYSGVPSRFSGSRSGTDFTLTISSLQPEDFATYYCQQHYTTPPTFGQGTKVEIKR
B44: Trastuzumab HCDR3 variant TRYFYDFPYMDY (Fab, V domains shown)
VH: B31 VH with A97T, Y100F, S102D, G103F, Y104P, S107D, V108Y
VL: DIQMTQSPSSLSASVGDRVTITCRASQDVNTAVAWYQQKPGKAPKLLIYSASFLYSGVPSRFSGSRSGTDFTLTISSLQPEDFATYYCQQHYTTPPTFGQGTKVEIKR
B45: Trastuzumab HCDR3 variant … (Fab, V domains shown)
VH: B31 VH with Y101D, S102Y, Y105T, M106F, S107D, V108Y
VL: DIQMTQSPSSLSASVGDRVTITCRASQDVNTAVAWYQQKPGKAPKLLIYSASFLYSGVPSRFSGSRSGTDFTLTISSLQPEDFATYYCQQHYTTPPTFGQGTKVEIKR
B46: Trastuzumab HCDR3 variant TRTTLGFYAMDY (Fab, V domains shown)
VH: B31 VH with A97T, Y99T, Y100T, Y101L, S102G, G103F, Y105A, S107D, V108Y
VL: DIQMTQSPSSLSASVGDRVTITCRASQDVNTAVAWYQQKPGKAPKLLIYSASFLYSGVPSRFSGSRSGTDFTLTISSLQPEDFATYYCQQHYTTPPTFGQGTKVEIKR
B47: Trastuzumab HCDR3 variant SIYGTDYYWFAD (Fab, V domains shown)
VH: B33 VH with V97S, K98I, H99Y, I101T, Y106F, G107A
VL: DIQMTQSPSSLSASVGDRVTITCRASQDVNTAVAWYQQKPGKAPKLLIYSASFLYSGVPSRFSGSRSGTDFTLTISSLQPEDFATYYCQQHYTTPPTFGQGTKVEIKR

Molecular target: human epidermal growth factor receptor 2 (HER2) extracellular domain (human, UniProt P04626 23-629)
Assay: SPR

Binder | Kd | log(KD (M))
B1 | 39.1 nM | -7.41 log(M)
B2 | 188 nM | -6.72 log(M)
B3 | 83.3 nM and 83.2 nM | -7.08 log(M)
B4 | 65 nM | -7.19 log(M)
B5 | 43.1 nM and 43 nM | -7.37 log(M)
B6 | 278 nM | -6.56 log(M)
B7 | 256 nM | -6.59 log(M)
B8 | 71.8 nM | -7.14 log(M)
B9 | 38.3 nM | -7.42 log(M)
B10 | 59.1 nM | -7.23 log(M)
B11 | 67 nM | -7.17 log(M)
B12 | 36.7 nM | -7.44 log(M)
B13 | 42.3 nM and 42.2 nM | -7.37 log(M)
B14 | 30.9 nM | -7.51 log(M)
B15 | 205 nM | -6.69 log(M)
B16 | 127 nM | -6.9 log(M)
B17 | 60.3 nM | -7.22 log(M)
B18 | 45.5 nM | -7.34 log(M)
B19 | 37.8 nM | -7.42 log(M)
B20 | 50.9 nM | -7.29 log(M)
B21 | 128 nM | -6.89 log(M)
B22 | 154 nM | -6.81 log(M)
B23 | 60.7 nM | -7.22 log(M)
B24 | 35 nM | -7.46 log(M)

Binder | Kd | log(KD (M))
B25 | 125 nM | -6.9 log(M)
B26 | 67.6 nM | -7.17 log(M)
B27 | 42.1 nM | -7.38 log(M)
B28 | 231 nM | -6.64 log(M)
B29 | 166 nM | -6.78 log(M)
B30 | 33 nM | -7.48 log(M)
B31 | 85.2 nM | -7.07 log(M)
B32 | 43.4 nM | -7.36 log(M)
B33 | 60.1 nM | -7.22 log(M)
B34 | 51.8 nM | -7.29 log(M)
B35 | 219 nM | -6.66 log(M)
B36 | 234 nM | -6.63 log(M)
B37 | 96.4 nM | -7.02 log(M)
B38 | 62.3 nM | -7.21 log(M)
B39 | 33.1 nM | -7.48 log(M)
B40 | 120 nM | -6.92 log(M)
B41 | 36.1 nM | -7.44 log(M)
B42 | 52.8 nM | -7.28 log(M)
B43 | 116 nM | -6.94 log(M)
B44 | 56.8 nM | -7.25 log(M)
B45 | 61.2 nM | -7.21 log(M)
B46 | 32.3 nM | -7.49 log(M)
B47 | 50.4 nM | -7.3 log(M)
